Article PMC13368180, “In silico design and validation of high-affinity RNA aptamers for SARS-CoV-2 comparable to neutralizing antibodies”
Substitutions are numbered along the chain they refer to.

B1: Ta (RBD-PB6-Ta) (structured_RNA)
RNA: GGCGACAUUUGUAAUUCCUGGACCGAUACUUCCGUCAGGACAGAGGUUGCCA
B2: TaG34C (structured_RNA)
RNA: B1 RNA with G34C
B3: TaG34U (structured_RNA)
RNA: B1 RNA with G34U
B4: TaG34A (structured_RNA)
RNA: B1 RNA with G34A
B5: TaC23G (structured_RNA)
RNA: B1 RNA with C23G
B6: TaC23A (structured_RNA)
RNA: B1 RNA with C23A
B7: TaC23U (structured_RNA)
RNA: B1 RNA with C23U

Biological target: SARS-CoV-2 spike RBD (SARS-CoV-2, UniProt P0DTC2 319-541)
Assay: EMSA
Conditions: protein: commercial

Point of comparison: B7, Kd 48.7 ± 2 µM. Against it:
- B1 — 2.3-fold higher, 111 µM
- B2 — within 1.5-fold, 33.5 ± 1.6 µM
- B3 — within 1.5-fold, 54.7 ± 2 µM
- B4 — within 1.5-fold, 55.5 ± 4.1 µM
- B5 — 3.4-fold higher, 168 µM
- B6 — within error, 55.7 ± 9.8 µM

Same assay, conditions: protein: commercial; hairpin

GGUCCUGGACCGAUACUUCCGUCAGGACCA (structured_RNA) [Tc (RBD-PB6-Tc)]: no binding.
